The nanobody polyreactivity screen of Harvey et al. (2022)

Assay: yeast display, Sf9 membrane polyspecificity reagent, FACS + sequencing; frameworks hold sequencing errors
Outline: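 Galactose-induced (36–48 hours) yeast carrying a synthetic nanobody display library were exposed to 10% biotinylated, detergent-solubilized Sf9 membrane reagent at 4 °C for 1 hour. FACS followed streptavidin microbead enrichment, using low and high (top ~1%) gates for expression (anti-HA) and reagent binding (streptavidin). Colony PCR, MiSeq 2 × 250 sequencing and CDR-length filtering followed. Labels for polyreactivity reflect the gate of origin.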

Sequence	polyreactivity (PSR sort gate)
QVQLVESGGGLVQAGGSLRLSCAASGSIFGSYTMGWYRQAPGKERELVAAITSSGGGTYYADSVKGRFTISRDNAKNTVYLQMNSLKPEDTAVYYCAAEYRDGYRFSYDYWGQGTQVTVSS	low polyreactivity
QVQLVESGGGLVQAGGSLRLSCAASGSIFGTNAMGWYRQAPGKERELVAAIDGGSTTYYADSVKGRFTISRDNAKNTVYLQMNSLKPEDTAVYYCAADGTRYLNYEGYAGYEYWGQGTQGTVSS	low polyreactivity
QVQLVESGGGLVQAGGSLRLSCAASGSIFGTNAMGWYRQAPGKERELVAAISTSADITYYADSVKGRFTISRDNAKNTVYLQMNSLKPEDTAVYYCNKRKWPTFTYAMNYWGQGTQVTVSS	low polyreactivity
QVQLVESGGGLVQAGGSLRLSCAASGSIFGTYAMGWYRQAPGKERELVAAISFIGGDTYYADSVKGRFTISRDNAKNTVYLQMNSLKPEDTAVYYCAADRELSGYGGEYWGQGTQVTVSS	low polyreactivity
QVQLVESGGGLVQAGGSLRLSCAASGSIFGVNAMGWYRQAHGKERELVASITGGDSTNYADSVKGRFTISRDNAKNTVYLLMNSLKPEDTAVYYCAKDHYYRYEEGDYWGQGTQVTVSS	low polyreactivity
QVQLVESGGGLVQAGGSLRLSCAASGSIFGVNAMGWYRQAPGKERELVAAISSGGSTNYADSVKGRFTISRDNAKNTVYLQMNSLKPEDTAVYYCAADTKTRSNYDYWGQGTQVTVSS	low polyreactivity
QVQLVESGGGLVQAGGSLRLSCAASGSIFGVNDMGWYRQAPGKERELVAGISSGGSTYYADSVKGRFTISRDNAKNTVYLQMNSLKPEDTAVYYCAKPYYDGRTHFDSWGQGTQVTVSS	low polyreactivity
QVQLVESGGGLVQAGGSLRLSCAASGSIFGVYAMGWYRQAPGKERELVARISGSSGSTRYSDSVKGRFTISRDNAKNTVYLQMNSLKPEDTAVYYCAARAIFRQGDRIYDSWGQGTQVTVSS	high polyreactivity
QVQLVESGGGLVQAGGSLRLSCAASGSIFGVYAMGWYRQAPGKERELVASITSGSSTNYADSVKGRFTISRDNAKNTVYLQMNSLKPEDTAVYYCAAGRTSRSRRYYRFFYAGDYWGQGTQVTVSS	low polyreactivity
QVQLVESGGGLVQAGGSLRLSCAASGSIFGVYAMGWYRQAPGQERELVAVITWSDGGTYYADSVKGRFTISRDNAKNTVYLQMNSLKPEDTAVYYCAKERYDYSYDYWGQGTQVTVSS	high polyreactivity
QVQLVESGGGLVQAGGSLRLSCAASGSIFGWYAMGWYRQAPGKERELVAAISSSDGSTYYADSVKGRFTISRDNAKNTVYLQMNSLTPEDTAVYYCAKVYIRQNLAPYGYWGQGTQVTVSS	low polyreactivity
QVQLVESGGGLVQAGGSLRLSCAASGSIFGWYAMGWYRQAPGKERELVATISSGGSTSYADSVKGRFTISRDNAKNTVYLQMKSLKPEDTAVYYCAADIYPDWIYLLYGYWGQGTQVTVSS	low polyreactivity
QVQLVESGGGLVQAGGSLRLSCAASGSIFGWYVMGWYRQAPGKERELVAAISSVGSTYYADSVKGRFTISRDNAKNTVYLQMNSLKPEDTAVYYCAADRVWGTPQAYVPSQFDYWGQGTQVTVSS	low polyreactivity
QVQLVESGGGLVQAGGSLRLSCAASGSIFGYEMGWYRQAPGRERELVAAISFSGVSTYYADSVKGRFTISRDNAKNTVYIQMNSLKQEDTAVYNCNAYSDGDEDYWVQGTQVTVSS	low polyreactivity
QVQLVESGGGLVQAGGSLRLSCAASGSIFGYNAMGWYRQAPGKERELVAAISLTTGSTYYADSVKGRFTISRDNAKNTVYLQMNCLNPEDTAVYYCAAVDADYYYWGQGTQVTVSS	high polyreactivity
QVQLVESGGGLVQAGGSLRLSCAASGSIFGYNVMGGDRQAPGKEREFVARINYIGSSTYYADSVKGRFTISRDNAKNTVYLQMNSLKPEDTADYYCNADNARGRSGVRRYYWGQGTQVTVSS	high polyreactivity
QVQLVESGGGLVQAGGSLRLSCAASGSIFGYVMGWSRQAPGKERELVAAISSGGSTDYADSVKGRFTISRDNAKNTVYLQMNSLKPEDTAVYYCAADTDNGYTYYYWGQGTQVTVSS	low polyreactivity
QVQLVESGGGLVQAGGSLRLSCAASGSIFGYYAMGCYRQAPGKERELVAAITNGGSTSYADSVKGRFTISRDNAKNTVDLQMNSLKPEETSVYYCNARFKRLFGRADDYWGQGTQVTVSS	low polyreactivity
QVQLVESGGGLVQAGGSLRLSCAASGSIFGYYAMGGYRQAPGKERELVAAISVNGGRTYYADSVKGRFTISRDNAKNTVYLQMNSLKPEDTAVYYCAAELVDYITFRGDYYYWGQGTQVTVSS	high polyreactivity
QVQLVESGGGLVQAGGSLRLSCAASGSIFGYYAMGWYRPAPGKERQLVAAIDSRGGSTYYADSVKGRFTISRDYEKNTVYLQMNSLKPEDTAVYYWAARLRYPRRGQGDNYWGQGTQVTVSS	low polyreactivity
QVQLVESGGGLVQAGGSLRLSCAASGSIFGYYAMGWYRQAPGKERELVAAIDSGGVSTYYADSVKGRFTISRDIAKNTVYLQMNSLKAEDTAVYYCAKRGPVRKTAYDYWGQGTQVTVSS	low polyreactivity
QVQLVESGGGLVQAGGSLRLSCAASGSIFGYYAMGWYRQAPGKERELVAAISRRGGRTYYADSVKGRFTISRDNAKNTVYLQMNSLKPEDTAVYYCAAAVSVSASPYTGFDYWGQGTQVTVSS	high polyreactivity

Sequence	polyreactivity (PSR sort gate)
QVQLVESGGGLVQAGGSLRLSCAASGSIFGYYAMGWYRQAPGKERELVAAISYRGGSTYYADSVKGRFTISRDNAKNTVYLQMNSLKPEDTAVYYCNAPFLGAHHYGYEYWGQGTQVTVSS	high polyreactivity
QVQLVESGGGLVQAGGSLRLSCAASGSIFGYYAMGWYRQAPGKERELVAAITRGARTYYADSVKGRFTISRDNAKNTVYLQMNSLKPEDTAFYYCNRVPYYEGGNGSWGQGTQVTVSS	high polyreactivity
QVQLVESGGGLVQAGGSLRLSCAASGSIFGYYAMGWYRQAPGKERELVASISGSGGTTYYADSVKGRFTISRDNAKNTVYLQMNSLKPEDTAVYYCAARRSMYGYPFVTSRRGYWGHGTQVTVSS	high polyreactivity
QVQLVESGGGLVQAGGSLRLSCAASGSIFGYYAMGWYRQAPGKERELVATITWGGGSTYADSVKGRFTISRDNAKNTVYLQMNSLKPEDTAVYYCNAGYRYTSAQVTWEYDYWGQGTQVTVSS	low polyreactivity
QVQLVESGGGLVQAGGSLRLSCAASGSIFGYYAMGWYRQAPGTERELVAAITTGGSTSYADSVKGRFTISRDNAKNTVYLQMNSLKPEDTAVYYCAARPHHGWLEYGSAGLGYWGQGTQVTVSS	low polyreactivity
QVQLVESGGGLVQAGGSLRLSCAASGSIFGYYAMGWYRQAPGTERELVATITWGGGSTYADSVKGRFTISRDNAKNTVYLQMNSLKPEDTAVYYCNAGYRYTSAQVTWEYDSWGQGTQVTVSS	low polyreactivity
QVQLVESGGGLVQAGGSLRLSCAASGSIFGYYAMGWYTLAPGKERELVASISFSGGSTYYADSVKGRFTISRDNAKNTVYLQMNSLKPEDTAVYYCAKRPRFVYWKHGYWGQGTQVTVSS	high polyreactivity
QVQLVESGGGLVQAGGSLRLSCAASGSIFGYYAMVWKRQAPGKESELVAAMNYSGVSTYYADSVKGRFTISRDNAKNTVYLQMNSLKPEDSAVYYCARDIRRKGFRYDYWGQGTQVTVSS	high polyreactivity
QVQLVESGGGLVQAGGSLRLSCAASGSIFGYYARGWYRQASGKESELVADITSSGSTYYADSVKGRFTISRDNAKNTVYLQMNSLKPEDTAVYYCAADQYFLGSIDGFEYWGQRTQVTVSS	low polyreactivity
QVQLVESGGGLVQAGGSLRLSCAASGSIFGYYDMGWYRQAPGKEREFVAASTFRGGRTYYADSVKGRFTISRDNEKNTVYIQMYSLKPEDTAVDFCAAGYHHRWGNYWGQGTQVTVSS	high polyreactivity
QVQLVESGGGLVQAGGSLRLSCAASGSIFGYYSMGWYRQAPGKERELVATITWGGGSTYADSVKGRFTISRDNAKNTVYLQMNSLKPEDTAVYYCNAGYRYTSAQVTWEYDYWGQGTQVTVSS	low polyreactivity
QVQLVESGGGLVQAGGSLRLSCAASGSIFGYYSMGWYRQATGKERELVATITWGGGSTYADSVKGRFTISRDNAKNTVYLQMNSLKPEDTAVYYCNAGYRYTSAQVTWEYDYWGQGTQVTVSS	low polyreactivity
QVQLVESGGGLVQAGGSLRLSCAASGSIFHPYAMGWYRQAPGKERELVAAISSSTGRTYYADSVKGRFTISRDNAKNTVYLQMNSLKPEDTAVYYCAARKKYSEFDYWGQGTQVTVSS	high polyreactivity
QVQLVESGGGLVQAGGSLRLSCAASGSIFHPYTMGWSRQAPGKERELVAAISWSGGRTYYADSVKGRFTISRDNAKNTVYLQMNSLKPEDTAVYYCAADVTLWYDSWGQGTQVTVSS	low polyreactivity
QVQLVESGGGLVQAGGSLRLSCAASGSIFHSYAMGWYRQAPGKEREFVASITQRVGRTNYADSVKGRFTISRDNAKNTVYLQMISLKPEDTAVYYCAASSWRLYYRRDSWGQGTQVTVSS	high polyreactivity
QVQLVESGGGLVQAGGSLRLSCAASGSIFHSYAQGWYRQAPGKERELVASITASGDSTYYADSVKGRFTISRDNAKNTVYLQMNSLKPEDTAVYYCNTQAVYGGGEGGYDYWGQGTQVTVSS	low polyreactivity
QVQLVESGGGLVQAGGSLRLSCAASGSIFHYYAMGWYRQAPGKERELVAAISWSGGRTNYADSVKGRFTISRDNAKNTVYLQMNSLKPEDTAVYYCAAAERSYSGGGKIGKYYWGQGTQVTVSS	high polyreactivity
QVQLVESGGGLVQAGGSLRLSCAASGSIFHYYAMGWYRQAPGKVRELVAAISSVGSTYYADSVKGRFTISRDYAKNTVYLQMNSLKPEDTAVYYCAAEAYAKRYVDRYSWYYYWGQGTQVTVSS	high polyreactivity
QVQLVESGGGLVQAGGSLRLSCAASGSIFIANAMGWYRQAPGKERELVAAISSSDSSTYYADSVKGRFTISRDNAKNTVYLQMNSLKPEDTAVYYCAATYWYWYREGYYWGQGTQVTVSS	high polyreactivity
QVQLVESGGGLVQAGGSLRLSCAASGSIFIAYTMGWYRQAPGKERELVAAISQSGGGTHYADSVKGRFTISRDNAKNTVYLQMNSLKPEDTAVYYCAADRPATSDYTGYDYWGQGTQVTVSS	low polyreactivity
QVQLVESGGGLVQAGGSLRLSCAASGSIFIDNAMGWDRQAPGKEREFVAAISKSGTSTYYADSVKGRFTISRDNAKNTVYLQMNSLKPEDTAVYYCAVRRPRPYSNYYYWGQGTQVTVSS	high polyreactivity
